In US11267875B2, “Humanized anti-DKK2 antibody and uses thereof” (YALE UNIVERSITY, priority 2015, dated 2022):

System: NK-92MI cells
Assay: Granzyme B expression in human NK cell line NK92 by flow cytometry
Format: cell-based
Conditions: recombinant proteins 200 ng/ml, 24 hours
Procedure: Recombinant Wnt5a and DKK2 (200 ng/ml) were added to NK-92MI cells for 24 hours and Granzyme B contents were analyzed by flow cytometry.
Human NK cell line NK-92 and primary mouse NK cells from spleens and MC38-grafted tumors were tested for their expression of Granzyme and cytotoxic activity in the presence or absence of recombinant proteins of DKK2, Wnt3a, Wnt5a and DKK1, and in the presence or absence of Wnt inhibitors (including LGK-974) and GSK inhibitors (including CHIR 99021). In this manner, the regulation of NK cell activation by DKK2 and Wnt was assessed.

B1: DKK2: recombinant DKK2 protein added to NK-92MI cells (protein)
chain: KLNSIKSSLGGETPGQAANRSAGMYQGLAFGGSKKGKNLGQAYPCSSDKECEVGRYCHSPHQGSSACMVCRRKKKRCHRDGMCCPSTRCNNGICIPVTESILTPHIPALDGTRHRDRNHGHYSNHDLGWQNLGRPHTKMSHIKGHEGDPCLRSSDCIEGFCCARHFWTKICKPVLHQGEVCTKQRKKGSHGLEIFQRCDCAKGLSCKVWKDATYSSKARLHVCQKI
Question: How did the “Granzyme B expression” value turn out when B1 was run?
Answer: Its value is “inhibited Granzyme B expression”.

B2: Wnt5a: recombinant Wnt5a protein added to NK-92MI cells (protein, UniProt P41221 62-380, looked up)
Protein Wnt-5a: IIGAQPLCSQLAGLSQGQKKLCHLYQDHMQYIGEGAKTGIKECQYQFRHRRWNCSTVDNTSVFGRVMQIGSRETAFTYAVSAAGVVNAMSRACREGELSTCGCSRAARPKDLPRDWLWGGCGDNIDYGYRFAKEFVDARERERIHAKGSYESARILMNLHNNEAGRRTVYNLADVACKCHGVSGSCSLKTCWLQLADFRKVGDALKEKYDSAAAMRLNSRGKLVQVNSRFNSPTTQDLVYIDPSPDYCVRNESTGSLGTQGRLCNKTSEGMDGCELMCCGRGYDQFKTVQTERCHCKFHWCCYVKCKKCTEIVDQFVCK
Question: For B2, which “Granzyme B expression” value is on record?
Answer: Its value is “inhibited Granzyme B expression”.
